Test results taken from patent US20210040232A1.

B1: H1H19273P (antibody, human IgG1, V domains shown)
VH: QITLKESGPTLVKPTQTLTLTCTFSGFSLSTSGVGVGWIRQSPGRALEWLALIYWNDHERYSPSLKSRLTITKDTSKNLVVLAMANMDPVDTATYFCAHRNIEYRRSYFFDYWGQGTLVTVSS
VL: DIQMTQSPSSVSASVRDRVTVTCRASQDINNWLAWYQQKPGKAPKLLIYAASSLQSGVPSRFSGSGSGTDFTLTISSLQPEDFATYYCQQANTFPFTFGPGTKVDIK
B2: H1H19264P (antibody, human IgG1, V domains shown)
VH: QVQLVQSGAEVKKPGASVKVSCKASDYTFTSYGISWVRQAPGQGLEWMGWISVYNGNINYAQKFKGRVTMTTDTSTSTAYMELRSLRSDDMAVYYCARVTQFGMDVWGQGTTVTVSS
VL: DIQMTQSPSSLSASVGDRVTITCRASQSISSNLNWYQQNPGKAPKLLIYTTSSLQGGVPSRFSGSGSGTDFTLTISSLQPEDFATYYCQQSFRTPFTFGPGTKVDIK
B3: H1H19313P (antibody, human IgG1, V domains shown)
VH: QITLKESGPTLVKPTQTLTLTCTFSGFSLSTSGVGVGWIRQPPGVALEWLALIYWNDDKRFSPSLKSRLTITKDTSKNQVVLTMTNMDPVDTATYYCAHRRLGLYYFDYWGQGTLVTVSS
VL: DIQLTQSPSFLSASVGDRVTITCWASQGISSYLAWYQQKPGKAPKLLIYAASTLQSGVPSRFSGSGSGTEFTLTISSLQPEDFATYYCQQVHIYPFTFGPGTKVDIK
B4: H1H19303P (antibody, human IgG1, kappa, V domains shown)
VH: EVQLVESGGGLVQPGGSLRLSCAASGFTFSNYEMSWVRQAPGKGLEWVSSIRTSGTTKYYADSMKGRFTISRDNAKNSLYLQMNSLRAEDTAVYYCAGGGTFLHYWGQGTLVTVSS
VL: DIQMTQSPSSVSASVGDRVTITCRASQGIASYLAWYQQKPGKAPKLLIYAASSLQTGVPSRFSGSGYGTDFTLTISSLQPEDFATYYCQQAKSFPMYTFGQGTKLEIKR

Tests used:
[1] = molecular target: mf CTLA-4 extracellular domain (aa 1-161) fused to the trans-membrane and cytoplasmic domain of hCD300a (aa 181-299), on Jurkat/NFAT-Luc cells (Macaca fascicularis; human) (UniProt G7PL88); test: cell-based or functional assay
[2] = molecular target: mf CTLA-4 extracellular domain (aa 1-161) fused to the trans-membrane and cytoplasmic domain of hCD300a (aa 181-299), on Jurkat/NFAT-Luc cells (Macaca fascicularis; human) (UniProt G7PL88); test: ECL cell binding, Jurkat/NFAT-Luc/mfCTLA-4-hCD300a cells
[3] = molecular target: human CTLA-4 (amino acids M1-N223) on stably transfected VI-fibroblast cells (human) (UniProt P16410); test: ECL cell binding, VI-fibroblast/hCTLA-4 cells
Chain of human CTLA-4 (amino acids M1-N223) on stably transfected VI-fibroblast cells (human) (P16410 36-223 limits assumed): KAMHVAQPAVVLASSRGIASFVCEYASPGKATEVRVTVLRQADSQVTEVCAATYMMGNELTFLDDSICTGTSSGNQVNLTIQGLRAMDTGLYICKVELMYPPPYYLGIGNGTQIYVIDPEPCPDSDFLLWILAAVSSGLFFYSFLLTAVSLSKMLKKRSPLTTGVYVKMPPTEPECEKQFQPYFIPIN

Chain of mf CTLA-4 extracellular domain (aa 1-161) fused to the trans-membrane and cytoplasmic domain of hCD300a (aa 181-299), on Jurkat/NFAT-Luc cells (Macaca fascicularis; human) (Q9UGN4 other isoform, or with tags, fused parts or gaps, form in doubt): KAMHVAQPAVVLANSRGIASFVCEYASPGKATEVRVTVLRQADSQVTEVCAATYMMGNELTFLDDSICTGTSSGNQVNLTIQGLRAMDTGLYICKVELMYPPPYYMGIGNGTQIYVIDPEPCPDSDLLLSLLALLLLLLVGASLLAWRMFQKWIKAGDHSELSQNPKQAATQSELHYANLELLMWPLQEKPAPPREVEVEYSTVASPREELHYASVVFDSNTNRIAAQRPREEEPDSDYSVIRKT

Binder	EC50, T-cell/APC IL-2 release assay, APC HEK293/hCD20/hCD86 [1] [nM]	EC50, T-cell/APC NFAT-luciferase assay, +Fc Block [1] [nM]	EC50, T-cell/APC NFAT-luciferase assay, -Fc Block [1] [nM]	Fold induction of IL-2 at 100 nM, APC HEK293/hCD20/hCD86 [1] [fold]	EC50 [2] [nM]	ratio of RLU signal to parental VI-fibroblast at 0.4 nM Ab [3]
B1	11.4	1.83	3.05	6.5	0.22	–
B2	–	–	–	–	–	1
B3	21.9	1.84	1.34	6.1	0.14	–
B4	40.9	1.77	1.28	4.4	0.11	–
